# From IntAct's records for PubMed 11356864
# B1: Syndecan-2 (Rattus norvegicus (Rat)), P34900 (parent)
# chain: MQRAWILLTLGLMACVSAETRAELTSDKDMYLDSSSIEEASGLYPIDDDDYSSASGSGAYEDKGSPDLTTSQLIPRISLTSAAPEVETMTLKTQSITPTQTESPEETDKKEFEISEAEEKQDPAVKSTDVYTEKHSDNLFKRTEVLAAVIAGGVIGFLFAIFLILLLVYRMRKKDEGSYDLGERKPSSAAYQKAPTKEFYA
# Variants of: B1
# Settings: with nf1_human NF1, P21359
# Chain of nf1_human NF1, P21359 (P21359 whole entry): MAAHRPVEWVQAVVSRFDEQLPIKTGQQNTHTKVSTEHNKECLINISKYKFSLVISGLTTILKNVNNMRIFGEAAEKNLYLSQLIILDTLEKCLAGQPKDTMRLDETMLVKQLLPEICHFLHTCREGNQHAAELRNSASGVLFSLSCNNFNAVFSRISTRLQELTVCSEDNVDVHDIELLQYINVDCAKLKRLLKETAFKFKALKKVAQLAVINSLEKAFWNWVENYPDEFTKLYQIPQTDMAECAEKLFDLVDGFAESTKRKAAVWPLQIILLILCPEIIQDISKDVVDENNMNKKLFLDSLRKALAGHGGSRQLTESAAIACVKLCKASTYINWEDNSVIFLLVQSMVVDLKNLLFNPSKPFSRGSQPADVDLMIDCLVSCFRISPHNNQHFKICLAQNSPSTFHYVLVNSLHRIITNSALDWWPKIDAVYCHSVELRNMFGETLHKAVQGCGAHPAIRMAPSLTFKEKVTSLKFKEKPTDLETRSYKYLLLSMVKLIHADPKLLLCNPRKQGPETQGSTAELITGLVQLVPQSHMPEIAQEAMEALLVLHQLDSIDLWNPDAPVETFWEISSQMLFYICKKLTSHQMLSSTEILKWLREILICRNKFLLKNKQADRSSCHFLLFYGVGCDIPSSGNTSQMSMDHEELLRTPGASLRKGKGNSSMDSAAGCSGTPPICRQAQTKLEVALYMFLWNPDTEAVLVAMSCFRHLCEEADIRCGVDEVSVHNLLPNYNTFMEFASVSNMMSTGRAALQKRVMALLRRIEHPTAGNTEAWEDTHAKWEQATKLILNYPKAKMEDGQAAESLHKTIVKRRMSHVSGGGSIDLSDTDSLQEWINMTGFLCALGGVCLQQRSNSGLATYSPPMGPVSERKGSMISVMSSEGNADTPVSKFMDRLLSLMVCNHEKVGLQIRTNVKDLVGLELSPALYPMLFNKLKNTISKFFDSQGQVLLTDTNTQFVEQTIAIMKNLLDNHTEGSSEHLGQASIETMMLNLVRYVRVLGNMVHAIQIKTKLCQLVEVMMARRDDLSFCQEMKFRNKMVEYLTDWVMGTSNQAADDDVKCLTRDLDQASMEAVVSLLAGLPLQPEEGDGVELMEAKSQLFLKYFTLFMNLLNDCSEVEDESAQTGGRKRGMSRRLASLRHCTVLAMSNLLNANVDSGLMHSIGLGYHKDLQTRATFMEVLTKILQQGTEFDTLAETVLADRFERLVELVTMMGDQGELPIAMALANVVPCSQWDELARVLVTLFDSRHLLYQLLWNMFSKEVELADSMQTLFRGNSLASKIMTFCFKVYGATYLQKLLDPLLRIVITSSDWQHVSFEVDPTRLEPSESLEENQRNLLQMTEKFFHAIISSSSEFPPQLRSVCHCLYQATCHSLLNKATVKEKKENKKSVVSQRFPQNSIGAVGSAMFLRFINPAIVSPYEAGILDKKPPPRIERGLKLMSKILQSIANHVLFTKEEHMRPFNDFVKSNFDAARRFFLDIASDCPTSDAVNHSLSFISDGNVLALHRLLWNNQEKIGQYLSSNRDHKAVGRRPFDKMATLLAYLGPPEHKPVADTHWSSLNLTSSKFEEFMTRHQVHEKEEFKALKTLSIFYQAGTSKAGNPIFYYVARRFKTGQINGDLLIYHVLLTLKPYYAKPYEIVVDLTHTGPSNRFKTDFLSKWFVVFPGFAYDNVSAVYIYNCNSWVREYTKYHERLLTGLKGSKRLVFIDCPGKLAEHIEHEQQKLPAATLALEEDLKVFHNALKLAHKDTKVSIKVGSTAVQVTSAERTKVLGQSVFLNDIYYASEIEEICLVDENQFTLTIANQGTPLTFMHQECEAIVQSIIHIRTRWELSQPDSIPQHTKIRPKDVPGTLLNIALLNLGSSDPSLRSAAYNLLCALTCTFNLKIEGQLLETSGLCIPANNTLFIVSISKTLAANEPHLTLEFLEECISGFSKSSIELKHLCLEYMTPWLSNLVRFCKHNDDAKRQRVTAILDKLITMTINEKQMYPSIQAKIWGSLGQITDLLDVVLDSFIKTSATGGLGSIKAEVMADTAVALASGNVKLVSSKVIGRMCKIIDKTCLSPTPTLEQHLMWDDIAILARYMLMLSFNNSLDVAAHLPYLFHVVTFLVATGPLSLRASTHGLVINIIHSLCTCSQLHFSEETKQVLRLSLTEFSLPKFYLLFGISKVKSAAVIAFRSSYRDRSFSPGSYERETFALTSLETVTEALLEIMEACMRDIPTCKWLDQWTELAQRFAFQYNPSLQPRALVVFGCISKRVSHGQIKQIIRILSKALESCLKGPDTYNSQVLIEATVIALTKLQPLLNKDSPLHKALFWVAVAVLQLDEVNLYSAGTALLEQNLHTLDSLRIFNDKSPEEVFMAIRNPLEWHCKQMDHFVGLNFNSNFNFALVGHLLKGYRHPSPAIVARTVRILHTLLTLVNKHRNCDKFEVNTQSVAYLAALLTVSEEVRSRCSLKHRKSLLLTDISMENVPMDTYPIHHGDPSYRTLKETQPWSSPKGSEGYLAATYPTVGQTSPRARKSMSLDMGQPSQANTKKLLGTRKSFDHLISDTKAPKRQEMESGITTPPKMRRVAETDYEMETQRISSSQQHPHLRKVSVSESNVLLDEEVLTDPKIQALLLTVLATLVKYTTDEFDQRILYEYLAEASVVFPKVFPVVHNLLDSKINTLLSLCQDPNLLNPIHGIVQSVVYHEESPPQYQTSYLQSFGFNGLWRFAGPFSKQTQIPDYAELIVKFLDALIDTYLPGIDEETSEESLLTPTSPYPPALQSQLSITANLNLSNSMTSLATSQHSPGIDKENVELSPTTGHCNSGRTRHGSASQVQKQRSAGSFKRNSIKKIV
row,Variant,effect of a mutation on the interaction
1,MQRAWILLTLGLMACVSAETRAELTSDKDMYLDSSSIEEASGLYPIDDDDYSSASGSGAYEDKGSPDLTTSQLIPRISLTSAAPEVETMTLKTQSITPTQTESPEETDKKEFEISEAEEKQDPAVKSTDVYTEKHSDNLFKRTEVLAAVIAGGVIGFLFAIFLILLLVYRMAAKDEGSYDLGERKPSSAAYQKAPTKEFYA [R172A;K173A],decreasing interaction
2,MQRAWILLTLGLMACVSAETRAELTSDKDMYLDSSSIEEASGLYPIDDDDYSSASGSGAYEDKGSPDLTTSQLIPRISLTSAAPEVETMTLKTQSITPTQTESPEETDKKEFEISEAEEKQDPAVKSTDVYTEKHSDNLFKRTEVLAAVIAGGVIGFLFAIFLILLLVYRMRKAAEGSYDLGERKPSSAAYQKAPTKEFYA [K174A;D175A],decreasing interaction
3,MQRAWILLTLGLMACVSAETRAELTSDKDMYLDSSSIEEASGLYPIDDDDYSSASGSGAYEDKGSPDLTTSQLIPRISLTSAAPEVETMTLKTQSITPTQTESPEETDKKEFEISEAEEKQDPAVKSTDVYTEKHSDNLFKRTEVLAAVIAGGVIGFLFAIFLILLLVYRMRKKDAASYDLGERKPSSAAYQKAPTKEFYA [E176A;G177A],decreasing interaction
4,MQRAWILLTLGLMACVSAETRAELTSDKDMYLDSSSIEEASGLYPIDDDDYSSASGSGAYEDKGSPDLTTSQLIPRISLTSAAPEVETMTLKTQSITPTQTESPEETDKKEFEISEAEEKQDPAVKSTDVYTEKHSDNLFKRTEVLAAVIAGGVIGFLFAIFLILLLVYRMRKKDEGAADLGERKPSSAAYQKAPTKEFYA [S178A;Y179A],increasing interaction

# Variants of: B1
# Settings: with nf1_human NF1, P21359
# Remark: another data set of the same source
row,Variant,effect of a mutation on the interaction
1,MQRAWILLTLGLMACVSAETRAELTSDKDMYLDSSSIEEASGLYPIDDDDYSSASGSGAYEDKGSPDLTTSQLIPRISLTSAAPEVETMTLKTQSITPTQTESPEETDKKEFEISEAEEKQDPAVKSTDVYTEKHSDNLFKRTEVLAAVIAGGVIGFLFAIFLILLLVYRMRKKDEGAADLGERKPSSAAYQKAPTKEFYA [S178A;Y179A],decreasing interaction
